In US10428327B2, “Compositions and methods for enhancing homologous recombination” (LIFE TECHNOLOGIES CORPORATION, priority 2016, dated 2019):

B1: 32-5′: short dsDNA donor with 32-base 5′ overhangs, EmGFP, SEQ ID 98 and 99 (nucleic acid)
chain 1: GCCCGTGCCCTGGCCCACCCTCGTGACCACCTGACTACAAAGACGATGACGACAAGAATTCTA
chain 2: GTCGGGGTAGCGGGCGAAGCACTGCACGCCGTAGAATTCTTGTCGTCATCGTCTTTGTAGTC
modifications: DNA, backbone and methylation of C not given here; further chemistry not fully specified
B2: 32-3′: short dsDNA donor with 32-base 3′ overhangs, EmGFP, SEQ ID 100 and 101 (nucleic acid)
chain 1: AGAATTCTTGTCGTCATCGTCTTTGTAGTCAGGTGGTCACGAGGGTGGGCCAGGGCACGGGC
chain 2: GACTACAAAGACGATGACGACAAGAATTCTACGGCGTGCAGTGCTTCGCCCGCTACCCCGAC
modifications: DNA, backbone and methylation of C not given here; further chemistry not fully specified

Test system: EmGFP gene in GRIPTITE HEK293 cells
Experiment: Sequencing analysis of FLAG tag/EcoRI insertion with +5 gRNA
Assay type: cell-based
Conditions: sequential delivery, 48 hours
Experimental: In order to understand the polarity of dsDNA donor with single stranded overhangs, we inserted a FLAG epitope tag along with an EcoRI site into a separate locus where the +5 gRNA was targeting the bottom strand of EmGFP gene (see Table 21). The Cas9 RNPs were first delivered into […]™ HEK293 cells, followed by the delivery of ssDNA donor, or short dsDNA donors with 32-base single stranded overhangs at either 5′ or 3′ end. Samples in the absence of gRNA served as controls. At 48 hours post transfection, the genomic loci were amplified by PCR. The resulting PCR fragments were subjected to restriction digestion with EcoRI (data not shown) or subjected to sequencing analysis. The integration efficiency of FLAG epitope tag along with an EcoRI was approximately 34% using dsDNA donor with 3′ overhangs and 20% using ssDNA donor.

Molecule | Relative % HDR (integration of FLAG epitope tag along with EcoRI) [%] | Relative % NHEJ [%] | Relative % wt [%] | Relative % HDR (integration of FLAG epitope tag along with EcoRI) (listed as dsDNA donor with 5′ overhangs) | Relative % HDR (integration of FLAG epitope tag along with EcoRI) (listed as dsDNA donor with 3′ overhangs)
B1 | 0.0 | 78.0 | 22.0 | barely detectable integration product | 
B2 | 34.2 | 54.6 | 11.1 |  | approximately 34%
